Measured values: US8084213, “Selection” (Domantis Limited)

Tests used:
[1] = target: scFv(31IJ1)-(KEAAA)6-scArc-HA (Phage P22 / human scFv?); test: recovery improves with operator number; details: tags: N-terminal scFv fusion, C-terminal HA; chain copies: 2 scArc per operator (inferred)
Protocol: In the solution expression experiments 3 µl of 1.7 nM PCR-amplified pIE7aA, pIE7a2A, pIE7a3A, pIE7a4A, pIE7aA-scFv(31IJ1), pIE7a2A-scFv(31 Ul), pIE7a3A-scFv (31IJ1) or pIE7a4A-scFv(31IJ1) template in 0.2 mg/ml tRNA is added to 25 µl EcoPro T7 in vitro translation mix (Novagen), supplemented with 0.75 µl of 100 mM oxidized glutathione (Sigma) and 0.25 µl […] 3F10 αHA mAb (Roche). Each reactions is split into three 9 µl aliquots. Two of the three in vitro translation aliquots of pIE7aA-scFv(31IJ1), pIE7a2A-scFv(31IJ1), pIE7a3A-scFv(31IJ1) or pIE-7a4A-scFv(31IJ1) are immediately combined with the aliquots of pIE7aA, pIE7a2A, pIE7a3A or pIE7a4A expression reactions respectively, one before and the other after the four-hour incubation at 25° C.
During the translation reaction the streptavidin-coated PCR tubes, cut from Strep Thermofast 96-well plates (Abgene), are first incubated at room temperature for three hours with 50 µl of at least 40 nM biotinylated protein A (Sigma), protein L (Pierce) fluorescein (Molecular Probes) of BSA (Sigma) in PBS. The coating buffer is thereafter removed and any remaining free biotin-binding sites are blocked with a 15 min pulse of 50 µg/ml biotinylated BSA in PBS. The pre-coated wells are thereafter three times washed with PBS and then filled with 100 µl of binding buffer C+ (100 mM KCl, 20 mM Tris, 5 mM MgCl2, 0.05% Tween 20, 0.05 mM EDTA, 1% BSA).
Upon completion of the translation reaction the products are diluted in Buffer C+ and applied to the pre-coated and blocked PCR tubes, allowed to bind for 30 min at room temperature and washed 4 times with 150 µl of Buffer C+. The retained genetic elements are amplified with PCR using a nested set of primers AS79/AS80 and a 30-cycle PCR protocol 30X60C2M. In 30X60C2M protocol 50 µl PCR reactions contain 200 µM each of dATP dTTP dGTP dCTP (Amersham), 300 nM forward and reverse primers AS13+ AS19 and 1 U of SuperTaq DNA polymerase (HT Biotechnology) in 1× polymerase Buffer (HT Biotechnology). […]

Vk(E5)-scArc-HA [2] = target: T1, Vk(E5)-scArc-HA (Phage P22 / human Vk); test: recovery reaches plateau at 3-4 operators; details: tags: N-terminal Vk(E5) dAb fusion, C-terminal HA; chain copies: 2 scArc per operator (stated)
Protocol: (§1) Tubes from Strep Thermofast 96-well plates are coated by applying 2 µl of 0.05 mg/ml biotinylated rat anti-HA mAb (clone 3F10, Roche), 0.2 µl of 0.5 mg/ml biotinylated protein L (Pierce), 1 µl of biotinylated 1 mg/ml β-galactosidase or 0.1 µl of 5 mg/ml biotinylated BSA (Sigma) respectively in 50 µl aliquots of PBS and incubating for 3 hours at room temperature. The monoclonal high-affinity α-HA mAb 3F10 recognises the C-terminal HA tag, β-galactosidase and protein L can be expected to interact with the $V_\kappa$(E5) light chain domain, while BSA serves as the negative control. At the end of the incubation the coating solution is removed and the first blocking solution consisting of 150 µl of 10 ng/ml biotinylated BSA (Sigma) in PBS is added to the wells and incubated for 15 minutes. At the end of the incubation the wells are washed three times with 150 µl of PBS and blocked additionally for 30 min at room temperature with buffer C+.
(§2) 25 µl S30 in vitro translation reactions (EcoPro T7, Novagen) are assembled according to the manufacturer's instructions and supplemented with 1.5 µl of 1.7 mM PCR-amplified template in 0.1 mg/ml RNA and 0.75 µl of 100 mM oxidized glutathione. […]
(§3) The PCR amplification products are analysed by 1% agarose gel electrophoresis in TAE in the presence of ethidium bromide and imaged using GeneGeius Bio Imaging System (Syngene). […]

scArc-Vk(E5)-HA [3] = target: T2, scArc-Vk(E5)-HA (Phage P22 / human Vk); test: plateau at 3-4 operators; details: tags: C-terminal Vk(E5) dAb fusion, chain copies: 2 scArc per operator (stated)
Protocol: as §1, §2, §3

Vk(E5)-scArc-HA [4] = target: T1, Vk(E5)-scArc-HA; test: recovery increases with operator number; complex stabilised by 3.4 nM anti-HA mAb 3F10; details: tags: N-terminal Vk(E5) dAb fusion, C-terminal HA; chain copies: 2 scArc per operator (stated)
scArc-Vk(E5)-HA [5] = target: T2, scArc-Vk(E5)-HA; test: stable linkage even without anti-HA mAb; details: tags: C-terminal Vk(E5) dAb fusion, chain copies: 2 scArc per operator (stated)

B1: genetic element with three Arc operators (dsDNA)
DNA 1: GATCTATGATAGAAGCACTCTACTATACTCATCACGAAACGGAGGATCTATGATAGAAGCACTCTACTATACTCATCACGAAACGGAGGATCTATGATAGAAGCACTCTACTAT
DNA 2: ATAGTAGAGTGCTTCTATCATAGATCCTCCGTTTCGTGATGAGTATAGTAGAGTGCTTCTATCATAGATCCTCCGTTTCGTGATGAGTATAGTAGAGTGCTTCTATCATAGATC
binding result [1]: binds | binding result (Vk(E5)-scArc-HA [2]): binds | binding result (scArc-Vk(E5)-HA [3]): binds

B2: genetic element with four Arc operators (dsDNA)
DNA 1: GATCTATGATAGAAGCACTCTACTATACTCATCACGAAACGGAGGATCTATGATAGAAGCACTCTACTATACTCATCACGAAACGGAGGATCTATGATAGAAGCACTCTACTATACTCATCACGAAACGGAGGATCTATGATAGAAGCACTCTACTAT
DNA 2: ATAGTAGAGTGCTTCTATCATAGATCCTCCGTTTCGTGATGAGTATAGTAGAGTGCTTCTATCATAGATCCTCCGTTTCGTGATGAGTATAGTAGAGTGCTTCTATCATAGATCCTCCGTTTCGTGATGAGTATAGTAGAGTGCTTCTATCATAGATC
binding result [1]: binds

B3: genetic element with two Arc operators (dsDNA)
DNA 1: GATCTATGATAGAAGCACTCTACTATACTCATCACGAAACGGAGGATCTATGATAGAAGCACTCTACTAT
DNA 2: ATAGTAGAGTGCTTCTATCATAGATCCTCCGTTTCGTGATGAGTATAGTAGAGTGCTTCTATCATAGATC
binding result [1]: binds | binding result (Vk(E5)-scArc-HA [4]): binds | binding result (scArc-Vk(E5)-HA [5]): binds
